The target in the assay is GST-eIF3h (human, UniProt O15372 1-352). In words: pull-down.
Sequence of GST-eIF3h (O15372 whole entry): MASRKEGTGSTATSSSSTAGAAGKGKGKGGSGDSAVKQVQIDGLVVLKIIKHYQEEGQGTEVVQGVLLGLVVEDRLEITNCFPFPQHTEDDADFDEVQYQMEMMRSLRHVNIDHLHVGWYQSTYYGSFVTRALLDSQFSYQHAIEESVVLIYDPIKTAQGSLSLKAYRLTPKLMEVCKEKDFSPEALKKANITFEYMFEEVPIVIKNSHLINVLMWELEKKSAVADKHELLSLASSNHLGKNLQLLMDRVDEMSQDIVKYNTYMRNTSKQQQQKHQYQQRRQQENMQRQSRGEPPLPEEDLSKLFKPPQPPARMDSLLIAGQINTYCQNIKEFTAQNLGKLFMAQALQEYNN

B1: His-METTL3 1-200 amino acid fragment (domain or fragment)
chain: MSDTWSSIQAHKKQLDSLRERLQRRRKQDSGHLDLRNPEAALSPTFRSDSPVPTAPTSGGPKPSTASAVPELATDPELEKKLLHHLSDLALTLPTDAVSICLAISTPDAPATQDGVESLLQKFAAQELIEVKRGLLQDDAHPTLVTYADHSKLSAMMGAVAEKKGPGEVAGTVTGQKRRAEQDSTTVAAFASSLVSGLNS
For B1, the binding result was “binds”.

The values above are taken from publication PMC6234840 (Nature, 2018).
